Results taken from PMC5389936 (The Journal of allergy and clinical immunology, 2016).

Target: TSLP (M29-130), longer subunit of the PCSK-generated heterodimeric TSLP (human, UniProt Q969D9 29-130)
Assay: MALDI-TOF MS with and without DTT

binding result: binds
Binder: KVTTNKCLEQVSQLQGLWRRFNRPLLKQQ (peptide, UniProt Q969D9 131-159, looked up) [TSLP (131-159), shorter subunit of the truncated thymic stromal lymphopoietin]
